Test results reported in PMC6959987.

Tests used:
[1] = target: Augmin-GFP (purified mitotic Augmin complex) (Drosophila | Drosophila (endogenous in embryos)) (UniProt Q9W0G7); assay: fluorescence microscopy of junctions between microtubules loaded with purified complexes; taxol-stabilised Rhodamine-MTs incubated with γ-TuRC-GFP and HiLyte Fluor 488-MTs incubated with Augmin-GFP, each pelleted through 15% glycerol, mixed 1:1 for 10 min at room temperature, fixed and …
[2] = target: Augmin-GFP (purified mitotic Augmin complex) (Drosophila | Drosophila (endogenous in embryos)) (UniProt Q9W0G7); assay: fluorescence microscopy of junctions between microtubules loaded with purified complexes; as the junction assay, but with HiLyte 647-labelled GMPCPP MT seeds (1:10) to mark the minus ends
[3] = target: Augmin-GFP (purified mitotic Augmin complex) (Drosophila | Drosophila (endogenous in embryos)) (UniProt Q9W0G7)

percent of γ-TuRC-containing RhodMTs that terminate at an Augmin-containing 488MT [1]: 55% | percent of γ-TuRC-RhodMTs generating branches on Augmin-488MTs [2]: 64% | x50 (time at which 50% of Tubulin polymerisation was achieved) with Augmin-GFP added to γ-TuRC-GFP; γ-TuRC-GFP alone 16.5 mins, control 31.5mins [3]: 9.5 min
Substance: γ-TuRC-GFP (purified mitotic γ-Tubulin Ring Complex) (from UniProt P42271 1-457; P42271 1-457)
